No end group written: not given here. *: point of attachment. FITC = O=C1OC2(c3ccc(O)cc3Oc3cc(O)ccc32)c2ccc(NC(=S)*)cc21; Ahx = NCCCCCC(=O)O
Target: T1, CD13 (human, UniProt P15144 2-967)
T1 construct: whole, on cells; Endogenous CD13 on the cell membrane, detected with PE-labeled anti-human CD13 antibody clone WM-15; also called human CD13
Test: Example 2 incubated with HT-1080 cells, anti-FITC immunoprecipitation, Western blot with anti-CD13 antibody WM-15
Protocol: Example 2 (80 μg/400 μL) reacted to HT-1080 cells (40 million cells) at 4° C. for 2 hours. The cells were then washed with PBS, and centrifuged. The centrifuged cells were dissolved in 1,000 μL of IP Lysis/Wash buffer (Thermo Fisher Scientific) with Halt Protease & Phosphatase inhibitor Single-Use Cocktail, ETDA-Free (Thermo Fisher Scientific) (10 μL) at 4° C. for 5 minutes. It was centrifuged at 4° C. for 10 minutes and the supernatant was collected. The supernatant was adjusted to be 1 mg in amount of protein and 80 μL of A/G agarose was added to it. The mixture was stirred at 4° C. for 1 hour and then centrifuged for 1 minute. Thus, a pre-treatment solution was obtained. 10 μg of IgG Fraction Monoclonal Mouse Anti-Fluorescein (FITC) (Jackson ImmunoResearch) or 10 μg of Mouse IgG Isotype Control (Thermo Fisher Scientific) was each added to the pre-treatment solution (1 mg/600 μL), and the mixtures were shaken at 4° C. overnight. Subsequently, 20 μL of A/G agarose was added and the mixtures were shaken at 4° C. for 2 hours. The mixtures were washed three times with the wash buffer described above and 20 μL of 2×Non-reducing Lane Marker Sample Buffer (Thermo Fisher Scientific) was added to the A/G agaroses. […]
The 10% solution used in immunoprecipitation was loaded to the left lane of FIG. 3. […] CD13 was not detected on the right lane, but CD 13 was detected on the center lane.

T1 sequence (P15144 2-967): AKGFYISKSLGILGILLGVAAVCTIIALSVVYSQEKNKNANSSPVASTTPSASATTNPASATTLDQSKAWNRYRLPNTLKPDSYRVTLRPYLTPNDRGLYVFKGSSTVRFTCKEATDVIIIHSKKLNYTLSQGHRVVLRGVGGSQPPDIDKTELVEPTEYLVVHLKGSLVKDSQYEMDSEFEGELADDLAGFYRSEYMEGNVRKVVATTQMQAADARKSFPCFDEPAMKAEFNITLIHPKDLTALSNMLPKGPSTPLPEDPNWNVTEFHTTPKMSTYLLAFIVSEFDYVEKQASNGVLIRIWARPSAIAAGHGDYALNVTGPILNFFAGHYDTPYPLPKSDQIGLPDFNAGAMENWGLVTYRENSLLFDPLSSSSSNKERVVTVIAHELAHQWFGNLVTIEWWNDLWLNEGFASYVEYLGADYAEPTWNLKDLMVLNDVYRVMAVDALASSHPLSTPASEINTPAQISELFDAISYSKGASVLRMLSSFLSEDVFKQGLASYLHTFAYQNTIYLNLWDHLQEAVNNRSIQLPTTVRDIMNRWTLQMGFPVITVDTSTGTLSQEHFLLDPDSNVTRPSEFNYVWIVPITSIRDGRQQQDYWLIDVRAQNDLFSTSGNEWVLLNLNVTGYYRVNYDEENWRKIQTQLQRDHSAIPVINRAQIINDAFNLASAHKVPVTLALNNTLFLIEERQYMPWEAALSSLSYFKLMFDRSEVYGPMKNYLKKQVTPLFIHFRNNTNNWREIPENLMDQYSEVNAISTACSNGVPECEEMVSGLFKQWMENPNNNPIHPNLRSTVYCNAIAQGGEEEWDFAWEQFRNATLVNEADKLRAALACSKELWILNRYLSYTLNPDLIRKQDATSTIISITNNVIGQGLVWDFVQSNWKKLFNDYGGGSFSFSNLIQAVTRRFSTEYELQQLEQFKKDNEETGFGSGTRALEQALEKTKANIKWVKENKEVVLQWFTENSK

binding result: binds
Binder: {FITC-Ahx}-KDNRGNLLQCVCTGNGRGEWKC (cysteine pairing not given here)

— patent US20230210940A1 (published 2023)
